Measurements: publication PMC10349104
Where “and” joins values, the source holds several entries; their conditions need not be identical. Equal values may be shown once.

Assays:
Assay in all cases: SPR
[1] = biological target: EVA-A(Y44A) (Amblyomma americanum)
[2] = biological target: EVA-A(1-98) (A. americanum)
[3] = biological target: EVA-A(DC) (Amblyomma americanum)
[4] = biological target: EVA-A(L39P) (A. americanum)
[5] = biological target: EVA-A(C8) (A. americanum)
[6] = biological target: EVA-A(Y44A) (A. americanum)
[7] = biological target: EVA-A(L39P) (Amblyomma americanum)
[8] = biological target: EVA-A(DN) (Amblyomma americanum)
[9] = biological target: EVA-A(21-102) (A. americanum)
[10] = biological target: EVA-A(C8) (Amblyomma americanum)

CCL24, sequence (O00175 27-119): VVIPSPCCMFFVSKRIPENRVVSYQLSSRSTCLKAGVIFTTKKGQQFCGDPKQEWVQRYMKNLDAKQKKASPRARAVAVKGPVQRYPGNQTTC
CCL13, sequence (Q99616 17-98): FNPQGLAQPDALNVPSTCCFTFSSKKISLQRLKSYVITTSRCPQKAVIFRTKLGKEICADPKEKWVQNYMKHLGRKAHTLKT
CCL4, sequence (P13236 24-92): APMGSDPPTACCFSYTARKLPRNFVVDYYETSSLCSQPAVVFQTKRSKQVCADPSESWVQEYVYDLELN
CCL3, sequence (P10147 24-92): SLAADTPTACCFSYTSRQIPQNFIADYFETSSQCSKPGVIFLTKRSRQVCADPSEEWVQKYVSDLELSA
CCL26, sequence (Q9Y258 24-94): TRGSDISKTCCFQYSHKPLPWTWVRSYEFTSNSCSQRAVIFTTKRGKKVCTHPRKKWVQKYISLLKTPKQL

**Q.** What does the source list for “CCL24 (from UniProt O00175 27-119) (ligand)”?
**A.** Kd [1]: 46.6 nM and 88.7 nM and 70.7 nM; koff [1]: 0.00131 s⁻¹ and 0.0022 s⁻¹ and 0.00184 s⁻¹; kon [1]: 28200 M⁻¹ s⁻¹ and 24800 M⁻¹ s⁻¹ and 26000 M⁻¹ s⁻¹; Kd [2]: 28.1 nM; koff [2]: 0.00111 s⁻¹; kon [2]: 36000 M⁻¹ s⁻¹; Kd [3]: 23.6 nM and 30.9 nM and 29.7 nM; koff [3]: 0.00111 s⁻¹ and 0.000885 s⁻¹ and 0.000951 s⁻¹; kon [3]: 47000 M⁻¹ s⁻¹ and 28600 M⁻¹ s⁻¹ and 32100 M⁻¹ s⁻¹; Kd [4]: 9.58 nM; koff [4]: 0.00121 s⁻¹; kon [4]: 111000 M⁻¹ s⁻¹; Kd [5]: 447 nM; koff [5]: 0.00869 s⁻¹; kon [5]: 18000 M⁻¹ s⁻¹; Kd [6]: 68.6 nM; koff [6]: 0.00179 s⁻¹; kon [6]: 26000 M⁻¹ s⁻¹; Kd [7]: 9.33 nM and 9.02 nM and 10.4 nM; koff [7]: 0.000856 s⁻¹ and 0.0013 s⁻¹ and 0.00101 s⁻¹; kon [7]: 91800 M⁻¹ s⁻¹ and 144000 M⁻¹ s⁻¹ and 96500 M⁻¹ s⁻¹; Kd [8]: 19.3 nM and 20.8 nM and 19.7 nM; koff [8]: 0.000922 s⁻¹ and 0.00125 s⁻¹ and 0.000564 s⁻¹; kon [8]: 47700 M⁻¹ s⁻¹ and 60300 M⁻¹ s⁻¹ and 28700 M⁻¹ s⁻¹; Kd [9]: 19.9 nM; koff [9]: 0.00091 s⁻¹; kon [9]: 46000 M⁻¹ s⁻¹; Kd [10]: 697 nM and 394 nM and 252 nM; kon [10]: 23800 M⁻¹ s⁻¹ and 14800 M⁻¹ s⁻¹ and 14400 M⁻¹ s⁻¹

**Q.** What does the source list for “CCL26 (from UniProt Q9Y258 24-94) (ligand)”?
**A.** Kd [1]: 3.9 nM and 3.21 nM and 1.71 nM; koff [1]: 0.00136 s⁻¹ and 0.000659 s⁻¹ and 0.00101 s⁻¹; kon [1]: 348000 M⁻¹ s⁻¹ and 205000 M⁻¹ s⁻¹ and 590000 M⁻¹ s⁻¹; Kd [2]: 1.89 nM; koff [2]: 0.00048 s⁻¹; kon [2]: 357000 M⁻¹ s⁻¹; Kd [3]: 1.25 nM and 1.65 nM and 2.78 nM; koff [3]: 0.000481 s⁻¹ and 0.000673 s⁻¹ and 0.000777 s⁻¹; kon [3]: 384000 M⁻¹ s⁻¹ and 407000 M⁻¹ s⁻¹ and 280000 M⁻¹ s⁻¹; Kd [4]: 0.19 nM; koff [4]: 0.00078 s⁻¹; kon [4]: 2.63e+06 M⁻¹ s⁻¹; Kd [5]: 70.9 nM; koff [5]: 0.00099 s⁻¹; kon [5]: 14000 M⁻¹ s⁻¹; Kd [6]: 2.94 nM; koff [6]: 0.00101 s⁻¹; kon [6]: 381000 M⁻¹ s⁻¹; Kd [7]: 0.183 nM and 0.176 nM and 0.197 nM; koff [7]: 0.000504 s⁻¹ and 0.000271 s⁻¹ and 0.000714 s⁻¹; kon [7]: 2.75e+06 M⁻¹ s⁻¹ and 1.53e+06 M⁻¹ s⁻¹ and 3.62e+06 M⁻¹ s⁻¹; Kd [8]: 9.99 nM and 8.95 nM and 8.79 nM; koff [8]: 0.000506 s⁻¹ and 0.000395 s⁻¹ and 0.000556 s⁻¹; kon [8]: 50600 M⁻¹ s⁻¹ and 44200 M⁻¹ s⁻¹ and 63300 M⁻¹ s⁻¹; Kd [9]: 9.24 nM; koff [9]: 0.00049 s⁻¹; kon [9]: 53000 M⁻¹ s⁻¹; Kd [10]: 56.4 nM and 69.6 nM and 86.6 nM; koff [10]: 0.00101 s⁻¹ and 0.000925 s⁻¹ and 0.00104 s⁻¹; kon [10]: 17900 M⁻¹ s⁻¹ and 13300 M⁻¹ s⁻¹ and 12000 M⁻¹ s⁻¹

**Q.** “CCL4 (from UniProt P13236 24-92) (ligand)” was tested. Which Kd [1] did it give?
**A.** 0.753 nM and 0.7 nM and 0.513 nM

**Q.** And the koff [1]?
**A.** 0.000169 s⁻¹ and 0.000191 s⁻¹ and 0.000236 s⁻¹

**Q.** What about the kon [1] of the same substance?
**A.** 224000 M⁻¹ s⁻¹ and 273000 M⁻¹ s⁻¹ and 460000 M⁻¹ s⁻¹

**Q.** What about the Kd [2] of the same substance?
**A.** 8.56 nM

**Q.** What about the koff [2] of the same substance?
**A.** 0.00087 s⁻¹

**Q.** What about the kon [2] of the same substance?
**A.** 165000 M⁻¹ s⁻¹

**Q.** What about the Kd [3] of the same substance?
**A.** 4.06 nM and 17.6 nM and 4.03 nM

**Q.** And the koff [3]?
**A.** 0.000873 s⁻¹ and 0.000943 s⁻¹ and 0.00091 s⁻¹

**Q.** What about the Kd [4] of the same substance?
**A.** 0.3 nM

**Q.** What about the koff [4] of the same substance?
**A.** 0.00023 s⁻¹

**Q.** What about the kon [4] of the same substance?
**A.** 805000 M⁻¹ s⁻¹

**Q.** What about the Kd [5] of the same substance?
**A.** 71.3 nM

**Q.** And the koff [5]?
**A.** 0.0215 s⁻¹

**Q.** And the kon [5]?
**A.** 293000 M⁻¹ s⁻¹

**Q.** And the Kd [6]?
**A.** 0.66 nM

**Q.** What about the koff [6] of the same substance?
**A.** 0.0002 s⁻¹

**Q.** What about the kon [6] of the same substance?
**A.** 319000 M⁻¹ s⁻¹

**Q.** What about the Kd [7] of the same substance?
**A.** 0.291 nM and 0.278 nM and 0.333 nM

**Q.** And the koff [7]?
**A.** 0.000211 s⁻¹ and 0.000223 s⁻¹ and 0.000297 s⁻¹

**Q.** What about the kon [7] of the same substance?
**A.** 724000 M⁻¹ s⁻¹ and 801000 M⁻¹ s⁻¹ and 890000 M⁻¹ s⁻¹

**Q.** And the Kd [8]?
**A.** 4.26 nM and 4.21 nM and 6.38 nM

**Q.** And the koff [8]?
**A.** 0.00229 s⁻¹ and 0.00217 s⁻¹ and 0.00209 s⁻¹

**Q.** What about the kon [8] of the same substance?
**A.** 538000 M⁻¹ s⁻¹ and 516000 M⁻¹ s⁻¹ and 328000 M⁻¹ s⁻¹

**Q.** What about the Kd [9] of the same substance?
**A.** 4.95 nM

**Q.** And the koff [9]?
**A.** 0.00218 s⁻¹

**Q.** And the kon [9]?
**A.** 461000 M⁻¹ s⁻¹

**Q.** And the Kd [10]?
**A.** 70.8 nM and 65.2 nM and 78.1 nM

**Q.** What about the koff [10] of the same substance?
**A.** 0.0133 s⁻¹ and 0.0132 s⁻¹ and 0.0382 s⁻¹

**Q.** What about the kon [10] of the same substance?
**A.** 188000 M⁻¹ s⁻¹ and 202000 M⁻¹ s⁻¹ and 489000 M⁻¹ s⁻¹

**Q.** For “CCL13 (from UniProt Q99616 17-98) (ligand)”, which Kd [1] is on record?
**A.** 0.0154 nM and 0.0339 nM and 0.0439 nM

**Q.** And the koff [1]?
**A.** 5.53e-05 s⁻¹ and 6.98e-05 s⁻¹ and 0.000105 s⁻¹

**Q.** And the kon [1]?
**A.** 3.58e+06 M⁻¹ s⁻¹ and 2.06e+06 M⁻¹ s⁻¹ and 2.4e+06 M⁻¹ s⁻¹

**Q.** And the Kd [2]?
**A.** 1.42 nM

**Q.** And the koff [2]?
**A.** 0.00063 s⁻¹

**Q.** And the kon [2]?
**A.** 458000 M⁻¹ s⁻¹

**Q.** And the Kd [3]?
**A.** 1.4 nM (2×) and 1.45 nM

**Q.** What about the koff [3] of the same substance?
**A.** 0.000625 s⁻¹ and 0.000669 s⁻¹ and 0.000651 s⁻¹

**Q.** And the kon [3]?
**A.** 448000 M⁻¹ s⁻¹ and 461000 M⁻¹ s⁻¹ and 466000 M⁻¹ s⁻¹

**Q.** And the Kd [4]?
**A.** < 0.1 nM

**Q.** What about the koff [4] of the same substance?
**A.** < 0.0001 s⁻¹

**Q.** And the kon [4]?
**A.** 3.26e+06 M⁻¹ s⁻¹

**Q.** And the Kd [5]?
**A.** 2.91 nM

**Q.** What about the koff [5] of the same substance?
**A.** 0.00423 s⁻¹

**Q.** What about the kon [5] of the same substance?
**A.** 1.47e+06 M⁻¹ s⁻¹

**Q.** And the Kd [6]?
**A.** < 0.1 nM

**Q.** What about the koff [6] of the same substance?
**A.** < 0.0001 s⁻¹

**Q.** What about the kon [6] of the same substance?
**A.** 2.68e+06 M⁻¹ s⁻¹

**Q.** What about the Kd [7] of the same substance?
**A.** 0.0116 nM and 0.0158 nM and 0.035 nM

**Q.** And the kon [7]?
**A.** 2.5e+06 M⁻¹ s⁻¹ and 4.09e+06 M⁻¹ s⁻¹ and 3.18e+06 M⁻¹ s⁻¹

**Q.** And the Kd [8]?
**A.** 0.298 nM and 0.304 nM and 0.285 nM

**Q.** What about the koff [8] of the same substance?
**A.** 0.000931 s⁻¹ and 0.000845 s⁻¹ and 0.000833 s⁻¹

**Q.** What about the kon [8] of the same substance?
**A.** 3.12e+06 M⁻¹ s⁻¹ and 2.78e+06 M⁻¹ s⁻¹ and 2.92e+06 M⁻¹ s⁻¹

**Q.** What about the Kd [9] of the same substance?
**A.** 0.3 nM

**Q.** And the koff [9]?
**A.** 0.00087 s⁻¹

**Q.** And the kon [9]?
**A.** 2.94e+06 M⁻¹ s⁻¹

**Q.** What about the Kd [10] of the same substance?
**A.** 2.74 nM and 3.26 nM

**Q.** What about the koff [10] of the same substance?
**A.** 0.00454 s⁻¹ and 0.00359 s⁻¹

**Q.** And the kon [10]?
**A.** 1.66e+06 M⁻¹ s⁻¹ and 1.1e+06 M⁻¹ s⁻¹

**Q.** For “CCL3 (from UniProt P10147 24-92) (ligand)”, which Kd [1] is on record?
**A.** 1.2 nM and 0.464 nM

**Q.** And the koff [1]?
**A.** 0.000428 s⁻¹ and 0.000445 s⁻¹ and 0.000452 s⁻¹

**Q.** What about the kon [1] of the same substance?
**A.** 357000 M⁻¹ s⁻¹ and 369000 M⁻¹ s⁻¹ and 973000 M⁻¹ s⁻¹

**Q.** And the Kd [2]?
**A.** 1.77 nM

**Q.** And the koff [2]?
**A.** 0.00058 s⁻¹

**Q.** What about the kon [2] of the same substance?
**A.** 345000 M⁻¹ s⁻¹

**Q.** What about the Kd [3] of the same substance?
**A.** 1.67 nM and 1.95 nM and 1.68 nM

**Q.** What about the koff [3] of the same substance?
**A.** 0.000578 s⁻¹ and 0.000636 s⁻¹ and 0.00061 s⁻¹

**Q.** What about the kon [3] of the same substance?
**A.** 345000 M⁻¹ s⁻¹ and 326000 M⁻¹ s⁻¹ and 363000 M⁻¹ s⁻¹

**Q.** What about the Kd [4] of the same substance?
**A.** 0.32 nM

**Q.** What about the koff [4] of the same substance?
**A.** 0.0004 s⁻¹

**Q.** What about the kon [4] of the same substance?
**A.** 1.22e+06 M⁻¹ s⁻¹

**Q.** What about the Kd [5] of the same substance?
**A.** 40.3 nM

**Q.** And the koff [5]?
**A.** 0.0464 s⁻¹

**Q.** What about the kon [5] of the same substance?
**A.** 1.08e+06 M⁻¹ s⁻¹

**Q.** What about the Kd [6] of the same substance?
**A.** 0.95 nM

**Q.** And the koff [6]?
**A.** 0.00044 s⁻¹

**Q.** What about the kon [6] of the same substance?
**A.** 566000 M⁻¹ s⁻¹

**Q.** And the Kd [7]?
**A.** 0.356 nM and 0.205 nM and 0.394 nM

**Q.** And the koff [7]?
**A.** 0.000296 s⁻¹ and 0.000365 s⁻¹ and 0.000413 s⁻¹

**Q.** And the kon [7]?
**A.** 831000 M⁻¹ s⁻¹ and 1.78e+06 M⁻¹ s⁻¹ and 1.05e+06 M⁻¹ s⁻¹

**Q.** And the Kd [8]?
**A.** 2.89 nM and 3.24 nM and 3.57 nM

**Q.** What about the koff [8] of the same substance?
**A.** 0.00144 s⁻¹ and 0.00146 s⁻¹ and 0.00142 s⁻¹

**Q.** What about the kon [8] of the same substance?
**A.** 498000 M⁻¹ s⁻¹ and 452000 M⁻¹ s⁻¹ and 397000 M⁻¹ s⁻¹

**Q.** And the Kd [9]?
**A.** 3.23 nM

**Q.** What about the koff [9] of the same substance?
**A.** 0.00144 s⁻¹

**Q.** What about the kon [9] of the same substance?
**A.** 449000 M⁻¹ s⁻¹

**Q.** What about the Kd [10] of the same substance?
**A.** 36.6 nM and 43.3 nM and 41.1 nM
